The values below come from patent US20250188151A1, “C-JUN ANTAGONIST PEPTIDES” (The University of Bath, priority 2022, published 2025).

For data set [1], the target named is T1, cJun/TRE DNA interaction (Homo sapiens, UniProt P05412, S292Y).
T1 construct: The same 60 amino acid c-Jun bZIP construct was used for all experiments; His-SUMO (N, cleaved yes); made in house; host or cells: E. coli
In words: CD cJun/TRE DNA antagonism (shift of TRE DNA peak at ~281 nm, Hill fit). In kind it is biochemical. As to conditions: ratio of CD IC50. The text has this: Briefly, in TBS the coding region for the essential gene dihydrofolate reductase (DHFR) is mutated to incorporate TRE sites so that introduction of c-Jun to this gene inside E. coli produces a transcriptional block that abrogates cell proliferation. The TRE site-bound c-Jun molecules sterically prevent RNA polymerase transcribing the essential gene and this can only be restored upon introduction of an effective c-Jun/TRE antagonist. Consequently, the survival of a particular cell is controlled by the ability of a peptide library member to remove the c-Jun transcriptional block and therefore to restore DHFR activity. TBS thus facilitates the identification of therapeutically valuable sequences. Further details for the TBS assay are provided in WO2020128015, which is incorporated herein by reference in its entirety. […] The TRE-DNA construct produces a positive CD peak at ˜281 nm, which decreases in intensity upon c-Jun binding. […] This method allows for the calculation of an IC50 value by fitting the titration data to a Hill equation. In some embodiments, the c-Jun antagonist is able to inhibit the DNA-binding activity of c-Jun within 10-fold of the ability of HingeW to inhibit the DNA-binding activity of c-Jun (e.g. the c-Jun antagonist has a reduced ability to inhibit the DNA-binding activity of c-Jun that is within 10-fold of that determined for HingeW). In some embodiments, the c-Jun antagonist is able to inhibit the DNA-binding activity of c-Jun within 9-fold, preferably within 8-fold, more preferably within 7-fold, even more preferably within 6-fold, yet more preferably within 5-fold of the ability of HingeW to inhibit the DNA-binding activity of c-Jun. The ability of the c-Jun antagonist and HingeW to inhibit the DNA-binding activity may be measured using the TBS assay (e.g. by quantifying the number of colonies) or by determining the IC50 using a circular dichroism assay described herein. Optionally, the c-Jun antagonist may have this activity when cross-linked. Methods for cross-linking peptides are described in more detail below.
Therefore, the acidic domain was the initial focus for optimisation. 1 was iteratively truncated (2-6) to investigate the effect on c-Jun binding and c-Jun/TRE DNA antagonism. […] Thermal denaturation experiments were then used to determine the Tm of peptide-c-Jun heterodimers, which was used as an approximate measure of target engagement. CD was also used to investigate the ability of the functional activity of peptides in antagonising the c-Jun/TRE DNA interaction. The TRE-DNA construct used produces a positive CD peak at ˜281 nm (no c-Jun absorbance at this wavelength allows for direct measurement of DNA upon binding) which decreases in intensity upon c-Jun binding. […] This allowed for the calculation of an IC50 value by fitting the titration data to a Hill equation. […] The same 60 amino acid c-Jun bZIP construct was used for all experiments, regardless of antagonist peptide length.

Data set [2] addresses cJun bZIP (Homo sapiens, UniProt P05412, S292Y). In words: CD spectra and thermal denaturation of peptide/cJun heterodimers. To be noted: peptide (5 μM)/c-Jun (5 μM) heterodimer; Table 6.
Method: Circular Dichroism (CD): An Applied Photophysics Chirascan was used for CD measurements, with a 200 μL sample in a 1 mm path length CD cell. Protein/DNA samples were suspended in 150 mM potassium phosphate, 150 mM potassium fluoride and 5 mM TCEP at pH 7.4 and were equilibrated for 30 minutes before measurement. […] These scans were averaged and converted to molar residue ellipticities (MRE). Thermal denaturation experiments were performed by measuring the ellipticity at 222 nm over a 1 to 90° C. gradient at 1° C. increments. Post-melt scans at 20° C. confirmed the transitions were reversible as they overlaid within 10% of the pre-melt scan.
Circular Dichroism (CD): An Applied Photophysics Chirascan was used for CD measurements, with a 200 μL sample in a 1 mm path length CD cell. Protein/DNA samples were suspended in 150 mM potassium phosphate, 150 mM potassium fluoride and 5 mM TCEP at pH 7.4 and were equilibrated for 30minutes before measurement. […] Thermal denaturation experiments were performed by measuring the ellipticity at 222 nm over a 1 to 90° C. gradient at 1° C. increments. Post-melt scans at 20° C. confirmed the transitions were reversible as they overlaid within 10% of the pre-melt scan.
Peptide helicity was determined by quantifying the CD signal at 222 nm of peptide only samples. Thermal denaturation experiments were then used to determine the Tm of peptide-c-Jun heterodimers, which was used as an approximate measure of target engagement. […] The same 60 amino acid c-Jun bZIP construct was used for all experiments, regardless of antagonist peptide length.
The target in data set [3] is cJun (Homo sapiens, UniProt P05412, S292Y). In words: Isothermal titration calorimetry, Example 2 (PEAQ-ITC). In kind it is binding. On the set-up: The same 60 amino acid c-Jun bZIP construct was used for all experiments; His-SUMO (N, cleaved yes); made in house; host or cells: E. coli. As to conditions: ITC. As for the experimental part: 2 μL injections of antagonist peptide at 25-200 μM were injected into the cell containing cJun at 2.5-20 μM. Software was used to record and analyse the heat change upon addition. Control experiments involved the injection of the antagonist peptide sample into the cell containing ITC buffer alone to determine the heat of dilution which was subtracted. The resulting binding data were fit to a one site binding model to extract the enthalpy change of binding (ΔH) and the equilibrium binding constant (KD), from which the free energy change of binding (ΔG) and the entropy change of binding (ΔS) was calculated (Wiseman et al., 1989). Thermodynamic parameters are presented as an average of two independent experiments with errors given as one standard deviation.

Data set [4] deals with T2, cJun bZIP (human, UniProt P05412 252-308, limits assumed).
T2 chain: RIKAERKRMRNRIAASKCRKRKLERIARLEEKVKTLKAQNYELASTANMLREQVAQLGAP
In words: cell-based or functional assay.

For data set [5], the target named is T2, cJun bZIP. In words: cell-based or functional assay.
The target in data set [6] is T2, cJun bZIP. In words: CD thermal denaturation, peptide 5 µM and c-Jun 5 µM.
For data set [7], the target named is T2, cJun bZIP. In words: ITC (PEAQ-ITC), peptide injected into cJun, one site model.

Bridge positions count the residues as written; N and C are the ends. Ends that are not written are not given here.

With “Ac-EDVLEEEIEQLEERNYALRKEIEDLQKQLEKLGAP-NH2 [Peptide 6]”, in data set [1], the “fold reduction in antagonism relative to 5” value is listed as 1.7 fold and the “fold reduction in cJun/TRE antagonism relative to 1” value is on record as 9.7 fold. In data set [2], the “Tm (° C.)” value is 55.1 ± 1.1 °C.

In the case of “Ac-LVVEEDVLEEEIEQLEERNYALRKEIEDLQKQLEKL-NH2 [Peptide 5]”, in data set [1], the “fold better antagonism than 6” value came to 1.7 fold, the “fold reduction in antagonism relative to 3” value is recorded as 2.3 fold, the “fold reduction in antagonism relative to 4” value is reported as 1.7 fold and the “fold reduction in cJun/TRE antagonism relative to 1” value is 5.8 fold. Besides, in data set [2], the “Tm (° C.)” value was determined as 62.8 ± 1.0 °C.

As to “Ac-EAEELVVEEDVLEEEIEQLEERNYALRKEIEDLQKQLEKL-NH2 [Peptide 4]”, in data set [2], the “Tm (° C.)” value is 64.1 ± 1.5 °C. For the same molecule, in data set [3], the “ΔG” value was -40.50 ± 0.48 kJ/mol, the “ΔH” value was -189.95 ± 8.09 kJ/mol and the “−TΔS” value was found to be 149.5 ± 8.10 kJ/mol. Besides, the “Stoichiometry, n” value in data set [3] (c-Jun-peptide interaction) is listed as 0.91 ± 0.04.

B1: Peptide 6 (peptide)
peptide: EDVLEEEIEQLEERNYALRKEIEDLQKQLEKLGAP-NH2
notes: NΔ28; also called LZ-only portion of the HingeW molecule
For B1, in data set [4], the “fold decrease in antagonism, 5 to 6” value stood at 1.7 fold and the “fold decrease in cJun/TRE DNA antagonism, 1 to 6” value came to 9.7 fold. Moreover, the “IC50 CD” value in data set [5] was determined as 130 µM. Moreover, the “Tm (° C.) of peptide-c-Jun heterodimer” value in data set [6] amounted to 55.1 ° C.

With Ac-EAEELVVEEDVLEEEIEQLEERNYALRKEIEDL-NH2 (Synthetic, NΔ20 CΔ10) [HingeW variant peptide 25], in data set [4], the “fold reduction in antagonism compared to 4” value came to 26.7 fold and the “fold reduction in antagonism compared to 11” value was 14.8 fold. The “IC50 CD” value in data set [5] came out at 1210 µM. Further, the “Tm (° C.) of peptide-c-Jun heterodimer” value in data set [6] came to 44.8 ° C.

B2: HingeW variant peptide 8 (peptide)
peptide: Ac-LVVEEDVLEEEIEQLEEKNKALKDEIEDLQKQLEKLY-NH2
modifications: lactam 20-24 (inferred); also: table prints a different, shorter sequence for 7/8
notes: See peptide 7; also called cyclised form of 7/8
Take B2: in data set [4], the “fold increase in antagonism relative to 5” value was 1.8 fold. Also, the “IC50 CD” value in data set [5] was determined as 73.5 µM. Also, the “Tm (° C.) of peptide-c-Jun heterodimer” value in data set [6] came to 67.2 ° C.

B3: HingeW variant peptide 27 (peptide)
peptide: Ac-EAEELVVEEDVLEEEIEQLEEKNKALKDEIEDLY-NH2
modifications: lactam 24-28 (inferred)
notes: Synthetic, NΔ20 CΔ10; also called cyclised form of 26/27
As for B3, in data set [4], the “fold reduction in antagonism relative to 1” value came to 8.8 fold. Also, in data set [5], the “IC50 CD” value was 118 µM. For the same molecule, the “Tm (° C.) of peptide-c-Jun heterodimer” value in data set [6] stood at 52.5 ° C.

For the molecule Ac-LVVEEDVLEEEIEQLEERNYALRKEIEDLQKQLEKL-NH2 (Synthetic, NΔ24 CΔ3) [Peptide 5], in data set [4], the “fold better antagonism than 6” value is 1.7 fold; the “fold decrease in antagonism, 3 to 5” value stood at 2.3 fold; the “fold lower antagonism than 1” value was found to be 5.8 fold; the “fold reduction in antagonism, 4 to 5” value was found to be 1.7 fold. Further, the “IC50 CD” value in data set [5] was 78.2 µM. Besides, the “Tm (° C.) of peptide-c-Jun heterodimer” value in data set [6] came out at 62.8 ° C.

B4: HingeW variant peptide 29 (peptide)
peptide: Ac-EAEELVVEEDVLEEEIEQLEERNYALRKEIEDLQ-NH2
modifications: lactam 28-32 (inferred)
notes: Synthetic, NΔ20 CΔ9; also called cyclised form of 28/29
Turning to B4, the “fold reduction in antagonism relative to 1” value in data set [4] came out at 10.4 fold. For the same molecule, in data set [5], the “IC50 CD” value was found to be 140 µM. For the same molecule, the “Tm (° C.) of peptide-c-Jun heterodimer” value in data set [6] is 57.2 ° C.

B5: HingeW variant peptide 10 (peptide)
peptide: Ac-LVVEEDVLEEEIEQLEERNYALRKEIEDLQKQLEDL-NH2
modifications: lactam (positions not given here); also: one i to i+4 K-to-D lactam, places not given here (K24/D28 or K31/D35)
notes: Synthetic, NΔ24 CΔ3; also called cyclised form of 9/10
Regarding B5, the “fold increase in antagonism relative to 5” value in data set [4] is 1.9 fold. Further, the “IC50 CD” value in data set [5] is 69 µM. The “Tm (° C.) of peptide-c-Jun heterodimer” value in data set [6] stood at 68.3 ° C.

As for Ac-EAEELVVEEDVLEEEIEQLEERNYALRKEIEDLQKQ-NH2 (Synthetic, NΔ20 CΔ7) [HingeW variant peptide 11], in data set [4], the “fold reduction in antagonism, 4 to 11” value was determined as 1.8 fold. Moreover, the “IC50 CD” value in data set [5] is 82.1 µM. Further, the “Tm (° C.) of peptide-c-Jun heterodimer” value in data set [6] was 57.1 ° C. In data set [7], the “-TΔS” value was -8.95 kJ/mol; the affinity, expressed as Kd, was 1100 nM; the “Stoichiometry, n” value turned out to be 0.95; the ΔG was -34.1 kJ/mol. Besides, the ΔH in data set [7] was -25.1 kJ/mol.

B6: HingeW peptide variant 24 (HW30) (peptide)
peptide: Ac-EAEELVVEEKVLEDEIEQLEERNYALRKEIKDLQDQ-NH2
modifications: lactam 10-14, 31-35
SMILES: CC[C@H](C)[C@H](NC(=O)[C@H](CCC(=O)O)NC(=O)[C@H](CCCCN)NC(=O)[C@H](CCCNC(=N)N)NC(=O)[C@H](CC(C)C)NC(=O)[C@H](C)NC(=O)[C@H](Cc1ccc(O)cc1)NC(=O)[C@H](CC(N)=O)NC(=O)[C@H](CCCNC(=N)N)NC(=O)[C@H](CCC(=O)O)NC(=O)[C@H](CCC(=O)O)NC(=O)[C@H](CC(C)C)NC(=O)[C@H](CCC(N)=O)NC(=O)[C@H](CCC(=O)O)NC(=O)[C@@H](NC(=O)[C@H](CCC(=O)O)NC(=O)[C@@H]1CC(=O)NCCCC[C@H](NC(=O)[C@H](CCC(=O)O)NC(=O)[C@H](CCC(=O)O)NC(=O)[C@@H](NC(=O)[C@@H](NC(=O)[C@H](CC(C)C)NC(=O)[C@H](CCC(=O)O)NC(=O)[C@H](CCC(=O)O)NC(=O)[C@H](C)NC(=O)[C@H](CCC(=O)O)NC(C)=O)C(C)C)C(C)C)C(=O)N[C@@H](C(C)C)C(=O)N[C@@H](CC(C)C)C(=O)N[C@@H](CCC(=O)O)C(=O)N1)[C@@H](C)CC)C(=O)N[C@H]1CCCCNC(=O)C[C@@H](C(=O)N[C@@H](CCC(N)=O)C(N)=O)NC(=O)[C@H](CCC(N)=O)NC(=O)[C@H](CC(C)C)NC(=O)[C@H](CC(=O)O)NC1=O
notes: Synthetic, NΔ20 CΔ7; also called double lactamised peptide
Regarding B6, the “IC50 CD” value in data set [5] came to 44.9 µM. For the same molecule, the “Tm (° C.) of peptide-c-Jun heterodimer” value in data set [6] amounted to 63.2 ° C. In data set [7], the “-TΔS” value came to 82 kJ/mol; the Kd worked out at 9.69 nM; the “Stoichiometry, n” value was determined as 1.05; the ΔG is -45.8 kJ/mol. Further, the ΔH in data set [7] was -128 kJ/mol.

B7: HingeW peptide variant 2 (peptide)
peptide: Ac-LARENEELEKEAEELVVEEDVLEEEIEQLEERNYALRKEIEDLQKQLEKL-NH2
notes: Synthetic, NΔ10 CΔ3; also called peptide 2
Take B7: in data set [4], the “fold decrease in antagonism, 1 to 2” value was 1.2 fold and the “fold more effective antagonism than 10” value amounted to 4 fold. Besides, in data set [5], the “IC50 CD” value stood at 16.6 µM. In data set [6], the “Tm (° C.) of peptide-c-Jun heterodimer” value stood at 68.5 ° C.

B8: HingeW peptide variant 3 (peptide)
peptide: Ac-LEKEAEELVVEEDVLEEEIEQLEERNYALRKEIEDLQKQLEKL-NH2
notes: Synthetic, NΔ17 CΔ3; also called peptide 3
Take B8: the “fold decrease in antagonism, 2 to 3” value in data set [4] stood at 2 fold. Also, the “IC50 CD” value in data set [5] was determined as 33.7 µM. The “Tm (° C.) of peptide-c-Jun heterodimer” value in data set [6] is 67.9 ° C.
